Source: article PMC10914751 (Nature Communications, 2024)

B4: Plk4 CPB(581–808) (domain or fragment, UniProt O00444 581-808, looked up)
chain: GYQNRTLRSITSPLVAHRLKPIRQKTKKAVVSILDSEEVCVELVKEYASQEYVKEVLQISSDGNTITIYYPNGGRGFPLADRPPSPTDNISRYSFDNLPEKYWRKYQYASRFVQLVRSKSPKITYFTRYAKCILMENSPGADFEVWFYDGVKIHKTEDFIQVIEKTGKSYTLKSESEVNSLKEEIKMYMDHANEGHRICLALESIISEEERKTRSAPFFPIIIGRKPG
notes: Polo-like kinase 4 (Plk4), cryptic polo-box (CPB), residues 581-808; a TEV site follows His-MBP and the legends call the protein CPB(581–808); Two CPB chains are estimated for each Vpr•VprBP; source: E. coli, purified

Tests used:
DDB1 (purified) = biological target: T1, DDB1 (purified) (UniProt Q16531 1-1140); test: SEC; purified proteins (Vpr, VprBP WD40-AR, Plk4 CPB, DDB1); TEV-digested HisTrap eluate of Vpr•VprBP mixed with Plk4 CPB; 20 mM Tris-HCl pH 7.5, 100 mM NaCl, 10% glycerol; stoichiometry estimated from Coomassie intensity; settings: both partners purified
T1 construct: DDB1

Plk4 CPB(581–808) = biological target: B4; test: as above; settings: both partners purified
Plk1 = biological target: T2, Plk1 (UniProt P53350 1-603); test: co-IP; HEK293T cells transfected with the indicated constructs; TBSN buffer (20 mM Tris-HCl pH 8.0, 120 mM NaCl, 0.5% Nonidet P-40, 5 mM EGTA, 1.5 mM EDTA, 2 mM DTT); immunoblot; Supplementary Fig. 2b under thymidine or nocodazole treatment; settings: partners not purified
T2 construct: Polo-like kinase 1 (Plk1); also called mitotic Plk1; source: HEK293T, transfected, in lysate

[1] = biological target: T3, Vpr•VprBP WD40-AR complex ( | HIV-1 (NL4-3 isolate), UniProt Q9Y4B6 1057-1507; P12520 1-96); test: SEC; purified proteins (Vpr, VprBP WD40-AR, Plk4 CPB, DDB1); TEV-digested HisTrap eluate of Vpr•VprBP mixed with Plk4 CPB; 20 mM Tris-HCl pH 7.5, 100 mM NaCl, 10% glycerol; stoichiometry estimated from Coomassie intensity; settings: both partners purified
T3 construct: DNA synthesised by GenScript; TEV digestion is told for the SEC sample; also called VprBP (WD40-AR)•Vpr complex; source: Trichoplusia ni (Tni)-FNL insect cells, co-expressed, purified (HisTrap, TEV digestion); not shown: His, N-terminal, cleaved; MBP, N-terminal, cleaved; copies: 1 + 1

T1 sequence (Q16531 whole entry): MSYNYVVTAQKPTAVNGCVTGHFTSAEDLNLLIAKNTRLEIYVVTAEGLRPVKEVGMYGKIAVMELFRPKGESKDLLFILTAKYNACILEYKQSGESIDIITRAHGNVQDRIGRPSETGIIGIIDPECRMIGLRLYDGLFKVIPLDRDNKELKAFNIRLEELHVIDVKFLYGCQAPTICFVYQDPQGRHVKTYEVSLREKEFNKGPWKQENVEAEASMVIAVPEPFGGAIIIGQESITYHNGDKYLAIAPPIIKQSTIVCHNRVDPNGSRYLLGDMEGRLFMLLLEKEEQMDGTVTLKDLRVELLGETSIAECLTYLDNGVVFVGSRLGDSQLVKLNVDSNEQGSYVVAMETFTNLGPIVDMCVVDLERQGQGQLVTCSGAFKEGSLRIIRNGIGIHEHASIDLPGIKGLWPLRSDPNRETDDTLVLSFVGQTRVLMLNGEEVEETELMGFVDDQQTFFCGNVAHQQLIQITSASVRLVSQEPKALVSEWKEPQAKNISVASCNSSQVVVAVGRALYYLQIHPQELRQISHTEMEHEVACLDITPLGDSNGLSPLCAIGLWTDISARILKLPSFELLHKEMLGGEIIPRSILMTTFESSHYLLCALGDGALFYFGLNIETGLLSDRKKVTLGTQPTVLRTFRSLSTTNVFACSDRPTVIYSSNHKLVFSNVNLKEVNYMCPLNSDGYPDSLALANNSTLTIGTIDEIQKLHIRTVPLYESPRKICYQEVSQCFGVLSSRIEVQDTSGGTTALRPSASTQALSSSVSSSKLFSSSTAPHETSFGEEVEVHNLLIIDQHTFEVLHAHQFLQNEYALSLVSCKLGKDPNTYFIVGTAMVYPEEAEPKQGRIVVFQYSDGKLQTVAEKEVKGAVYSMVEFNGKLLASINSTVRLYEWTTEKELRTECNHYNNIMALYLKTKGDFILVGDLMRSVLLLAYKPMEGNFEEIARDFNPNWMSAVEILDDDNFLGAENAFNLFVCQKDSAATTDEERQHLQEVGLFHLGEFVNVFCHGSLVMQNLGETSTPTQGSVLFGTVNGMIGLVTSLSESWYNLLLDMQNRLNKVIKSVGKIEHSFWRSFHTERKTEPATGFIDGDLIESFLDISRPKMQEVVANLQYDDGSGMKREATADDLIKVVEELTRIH
T2 sequence (P53350 whole entry): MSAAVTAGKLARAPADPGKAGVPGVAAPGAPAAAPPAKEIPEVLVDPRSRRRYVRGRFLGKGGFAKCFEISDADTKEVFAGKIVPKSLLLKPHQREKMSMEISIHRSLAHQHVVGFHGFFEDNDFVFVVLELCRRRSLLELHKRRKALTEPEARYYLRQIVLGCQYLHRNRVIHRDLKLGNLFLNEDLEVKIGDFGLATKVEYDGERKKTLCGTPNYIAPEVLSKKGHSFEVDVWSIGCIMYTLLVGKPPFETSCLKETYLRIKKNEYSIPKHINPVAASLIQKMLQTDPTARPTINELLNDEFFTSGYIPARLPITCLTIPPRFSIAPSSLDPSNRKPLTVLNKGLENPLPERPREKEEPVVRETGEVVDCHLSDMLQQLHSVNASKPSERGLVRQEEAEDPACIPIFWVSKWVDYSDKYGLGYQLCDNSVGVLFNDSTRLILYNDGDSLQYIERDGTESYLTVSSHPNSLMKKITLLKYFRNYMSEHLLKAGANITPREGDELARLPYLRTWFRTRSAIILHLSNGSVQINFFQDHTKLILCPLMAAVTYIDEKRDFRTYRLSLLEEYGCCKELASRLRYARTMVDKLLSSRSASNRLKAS

B1: VprBP WD40-AR(1057–1507) (domain or fragment)
chain: not shown
notes: source: Trichoplusia ni (Tni)-FNL insect cells, purified (HisTrap, TEV digestion, SEC); not shown: His, N-terminal, cleaved; MBP, N-terminal, cleaved
- binding result (DDB1 (purified)): binds

B2: Vpr (co-expressed with VprBP WD40-AR in insect cells) (natural protein)
chain: MEQAPEDQGPQREPYNEWTLELLEELKSEAVRHFPRIWLHNLGQHIYETYGDTWAGVEAIIRILQQLLFIHFRIGCRHSRIGVTRQRRARNGASRS
notes: also called 11-kDa Vpr
- binding result (Plk4 CPB(581–808)): binds

B3: VprBP (transfected; construct not specified in the text) (natural protein)
chain: not shown
notes: VprBP (DDB1-CUL4-Associated Factor 1); may be full length or a WD40-containing fragment, and in some panels perhaps the endogenous protein; source: HEK293T, transfected, in lysate
- fold weaker binding than Plk4 (Plk1): ~3 fold

Binder: B4
- stoichiometry N [1]: ~2
